In patent publication US20020025923A1 (University of California, published 2002):

B1: CD34, component of PNAd from human tonsil (ligand, UniProt P28906 32-385, looked up)
chain: SLDNNGTATPELPTQGTFSNVSTNVSYQETTTPSTLGSTSLHPVSQHGNEATTNITETTVKFTSTSVITSVYGNTNSSVQSQTSVISTVFTTPANVSTPETTLKPSLSPGNVSDLSTTSTSLATSPTKPYTSSSPILSDIKAEIKCSGIREVKLTQGICLEQNKTSSCAEFKKDRGEGLARVLCGEEQADADAGAQVCSLLLAQSEVRPQCLLLVLANRTEISSKLQLMKKHQSDLKKLGILDFTEQDVASHQSYSQKTLIALVTSGALLAVLGITGYFLMNRRSWSPTGERLGEDPYYTENGGGQGYSSGPGTSPEAQGKASVNRGAQENGTGQATSRNGHSARQHVVADTEL
modifications: native glycoprotein carrying the MECA-79 epitope

Legend:
[1] = target: T1, CD4/IgG chimera (entire extracellular domain of human CD4 fused to the Fc domain of human IgG1) (human, UniProt P01730 26-396); assay: precipitation of PNAd with the IgG chimera (CD34 as a named component of PNAd)
T1 construct: extracellular domain; Control chimera; also called control CD4/IgG chimera; not shown: Fc domain of human IgG1

[2] = target: B1; assay: precipitation of PNAd with the L-selectin/IgG chimera, elution with EDTA

Binder	binding result [1]	binding result [2]
B1	no binding	–
L-selectin/IgG chimera (entire extracellular domain of murine L-selectin fused to the Fc domain of human IgG1) (Fc fusion, UniProt P18337 39-332, looked up, extracellular domain; From supernatants of transfected 293 cells, protein-A purified; also called recombinant L-selectin/IgG chimera; not shown: Fc domain of human IgG1) WTYHYSEKPMNWENARKFCKQNYTDLVAIQNKREIEYLENTLPKSPYYYWIGIRKIGKMWTWVGTNKTLTKEAENWGAGEPNNKKSKEDCVEIYIKRERDSGKWNDDACHKRKAALCYTASCQPGSCNGRGECVETINNHTCICDAGYYGPQCQYVVQCEPLEAPELGTMDCIHPLGNFSFQSKCAFNCSEGRELLGTAETQCGASGNWSSPEPICQVVQCEPLEAPELGTMDCIHPLGNFSFQSKCAFNCSEGRELLGTAETQCGASGNWSSPEPICQETNRSFSKIKEGDYN	–	binds
